Consider 1 molecule from patent KR20150063728A (dated 2015).

Assay [1] has as its target T1, FLAG-Tagging 된 hVEGF-C (Accession # P49767) (human, UniProt P49767 103-227, limits assumed).
T1 construct: also called FLAG-Tagging 된 VEGF-C; not shown: FLAG tag
T1 sequence (looked up): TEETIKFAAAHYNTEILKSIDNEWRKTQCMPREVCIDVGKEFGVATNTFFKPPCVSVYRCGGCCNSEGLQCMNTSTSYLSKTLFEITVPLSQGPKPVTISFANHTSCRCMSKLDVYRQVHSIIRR
Description: competitive ELISA: scFv inhibits FLAG-hVEGF-C binding to coated hVEGR-R3-Fc.

In assay [2] the target is T2, 인간 VEGF-C 폴리펩타이드 (Human VEGF-C; R&D systems; Accession # P49767) (human, UniProt P49767 103-227).
T2 construct: Bought; also called hVEGF-C
T2 sequence (looked up): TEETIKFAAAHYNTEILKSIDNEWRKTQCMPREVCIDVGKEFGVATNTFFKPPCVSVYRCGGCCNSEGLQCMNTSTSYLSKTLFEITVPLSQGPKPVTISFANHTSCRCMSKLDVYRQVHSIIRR
Briefly: ELISA, coated human VEGF-C, scFv detected with anti-HA-HRP; 50% binding concentration (Kd). On the technique in general: In an ELISA, binding on a coated surface is turned into a signal by an enzyme label.

B1: SAIT-VEGFC-AB-4A2 (scFv 형태의 항-VEGF-C 항체) (scFv, V domains shown)
VH: EVQLLESGGGLVQPGGSLRLSCAASGFTFSSYDMSWVRQAPGKGLEWVSAISYDNGSTYYADSVKGRFTISRDNSKNTLYLQMNSLRAEDTAVYYCARDPYLARLNTFDYWGQGTLVTVSS
VL: QSVLTQPPSASGTPGQRVTISCSGSSSNIGSNNVSWYQQLPGTAPKLLIYYNSHRPSGVPDRFSGSKSGTSASLAISGLRSEDEADYYCATWDSSLNGYVFGGGTKLT
notes: Tested as library scFv (Ni-NTA purified, anti-HA detection)
A word on the IC50: it is the concentration that inhibits the measured activity by half. Higher therefore signals weaker potency in that assay. In general, Kd refers to the equilibrium constant for the complex coming apart. A lower Kd goes with a tighter complex. In turn, B1 had a half-maximal inhibitory concentration (IC50) in assay [1] of 33.4 nM. For the same molecule, binding in assay [2] was characterised by a dissociation constant (Kd) of 26.2 nM.
